# From patent publication US20250002876
# Tests used:
# Assay in all cases: cell_activity
# [1] = system: ZnF-MLT transposase fusion, covalent linker (Myotis lucifugus); settings: amplicon-seq
# [2] = system: ZnF-MLT transposase, non-covalent linker (Myotis lucifugus); settings: HEK293 landing pad, amplicon-seq
# [3] = system: MLT K350A S8P,C13R,K350A (Myotis lucifugus); settings: HEK293; integration >=10% GFP
# [4] = system: MLT K350A/D416A S8P,C13R,K350A,D416A (Myotis lucifugus); settings: HEK293; integration >=10% GFP
Substance,"activity (% of reads on target) ([1]; HEK293 plasmid landing pad, TTAA 15 bp from site)",activity (% of reads on target) [2],activity (% of reads on target) ([1]; HEK293 landing pad),activity (% GFP excision) [3],activity (% GFP excision) [4]
"CTCCACTGTGGGGTGCCGCAGTGGAGATGACTTGTTTGTTAACGGCACTTTAACAG (double strand) [Landing pad, ZnF sites on both sides of TTAA]",42,29,–,–,–
"Landing pad, single ZnF site next to TTAA",–,12,24,–,–
TTAACACTTGGATTGCGGGAAACGAGTTAAGTCGGCTCGCGTGAATTGCGCGTACTCCGCGGGAGCCGTCTTAACTCGGTTCATATAGATTTGCGGTGGAGTGCGGGAAACGTGTAAACTCGGGCCGATTGTAACTGCGTATTACCAAATATTTGTT / AATTATTTATGTACTGAATAGATAAAAAAATGTCTGTGATTGAATAAATTTTCATTTTTTACACAAGAAACCGAAAATTTCATTTCAATCGAACCCATACTTCAAAAGATATAGGCATTTTAAACTAACTCTGATTTTGCGCGGGAAACCTAAATAATTGCCCGCGCCATCTTATATTTTGGCGGGAAATTCACCCGACACCGTAGTGTTAA [MLT donor left and right ITRs],–,–,–,> 20,> 20
